# From the supplement of paper PMC9170038
# System: K4 kissing-loop RNA reporter
# Experiment: apparent KD of K4 kissing-loop reporter; higher = weaker reporter binding
# Conditions: Eterna round: R107
# Experimental: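 RNA-MaP round R107: designed RNA switches with theophylline, tryptophan, arginine or FMN aptamers are transcribed on-chip within common flanks. They are titrated with a labelled K4 kissing-loop RNA reporter in RNA-MaP buffer (100 mM Tris pH 7.5, 80 mM KCl, 4 mM MgCl2), without ligand or with the indicated ligand. Median apparent KD per design.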
# [1] = input ligand: theophylline 20 uM
# [2] = input ligand: tryptophan 2.4 mM
# 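Note: bound reporter read as fluorescence of individual clusters on recovered sequencing chips by microscopy, with normalized cluster intensities fitted with a binding model.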
Sequence,apparent KD of K4 kissing-loop reporter (input ligand: FMN 200 uM) [nM],apparent KD of K4 kissing-loop reporter (input ligand: arginine 13.2 mM) [nM],apparent KD of K4 kissing-loop reporter (input ligand: none) [nM],apparent KD of K4 kissing-loop reporter [1] [nM],apparent KD of K4 kissing-loop reporter [2] [nM]
CACGGUUAUACGGCCGCCACUGAUUGCGUUGCAGUGAUGUUGCACGCGUCCGACUACACCUCAUUCAGGACCGGGUAGACAUGCA [theeternabot_exclusion_KL_Trp_B_11],238,163,230,208,246
CACUCGGUAUCAGAUACCAGACUAACGAUACCGAGUGUAUCGGGUAGUGAUGUUACCAUAGUCCCUUGGCAGCUGAUAUACCAUA [Theo B SS t9],249,242,265,269,223
CAGAAGCAUUCGGCCGCCACUCCAGUGAUGUUGGAGCGGGAGGGCCUUAAACCUCGAGGCUGCUGGAGGACCGGGAAUGUUGAGG [Beerso],166,164,168,173,269
CAGAUCACAGAGUGAUGUUCUGUGUCCGAAGGAGCGCGCUUCGGCGCAGGUAGGUCGCGGAUACAGUUGACGUACCAUCUAGACA [Arg A Ex t3c],446,383,583,485,507
CAUACGCAUGGAGGAUAUGAGAUUUCUCAUAUUAUUUAAUAUUCUCAGUGAUGUUGAGAAUUUAACUCAGAAGGCCAUGUGUAUG [Ex FMN B 5],316,149,156,154,152
CAUACGCAUGGAGGAUAUGAGAUUUUUCAUAUUACUUUUUAUUCUCAGUGAUGUUGGGAUUUGUAAUCAGAAGGCCAUGUGUAUG [#10 K4 FMN B Exclusion],174,93.2,99.8,110,98.1
CAUACGCAUGGAGGAUAUGGGAUUUCUCAUAUUAACCUGUAUCAGGUAUCUCAGUGAUGUUGAGACUCAGAAGGCCAUGUGUAUG [Ex FMN B 25],494,303,364,354,344
CAUACUAUCAGAAGGAGCGUGGAAUAUUCAUCUGUAUCUAAUACGAGUGAUGUUCGUAAUUCACAGGUAGGUCGCUGAUUAAUAC [whbob_Ex_Arginine_B_2th159],265,272,267,269,219
CAUAGGAAACUAUGUUUCUCUCUGACUGAAGGAGCGCGUGAAAACGCAGGUAGGUCGCAGAAUUUAACAGAGAGUGAUGUUCUCA [Ex Arginine A K4 12],457,396,567,633,430
CAUAUACAAGUGAUGUUUGUACUAACCGAAGGAGCGUCGUUGAAGACAGGUAGGUCGCGGUUUAAGUUAGAUUAUAUAAUUCCAC [JR_Nu_SSArginiA_Sub027],705,535,892,715,509
CCAAUCUGUUACGAUACCAGUCAAAGAUAUUUGAUCAAUACCCUCACCGAGUGAUGUUCGGACCCUUGGCAGCGUCUGGGAUAGG [ceevmullin],228,267,266,281,193
CCACCAAGCACGGCCGCCACUAAAUCUGCAAGUAACCUAAAGUGAUGUUUUAUCUUGCGUCAGACUAGGACCGGGUGUCAAGUUA [theeternabot_sameState_KL_Trp_B_45],420,408,387,704,755
CCAGGAUGAUGAGGAUGAUGAAUUACUGAAGGAGCGCAUAUGGUUGCAGGUAGGUCGCGGUGAACAAGUAUAGUGAUGUUAUGCC [SSArgA.W],575,615,795,1160,545
CCAGGUUGCCGCAACGACCUGGAUUUUAGGGAGGAUAUCCAGAGCAGGAGAAGGCCCAGUGAUGUUGGGCCUGUGGAGCCCAUAU [Ararensoza],274,149,176,120,151
CCAUCGCUAUUCGAUACCAGUCAGGAGGUCUGUGACCUCCUAAUGGAGUGAUGUUCCUUAGACCCUUGGCAGCGAAUAGUGAUGG [#02 K4 Theophylline B Same State],203,196,221,141,202
CCAUCGCUAUUCGAUACCAGUCAUAAAAUCUUUGGUUAAAUAAAGGAGUGAUGUUCCAAAGACCCUUGGCAGCGAAUAGUGAUGG [Theophylline B K4 6],670,624,695,887,780
